Experimental data published in patent US20230122364A1 (VANDERBILT UNIVERSITY, published 2023).
Numbering of substitutions follows the chain as printed.

B1: COV2-2098 (antibody, V domains shown)
VH: EVQLLESGGGLIQPGGSLRLSCAASGFTFSNYAMSWVRQAPGKGLEWVSGIISTSGGATYNADSVRGRFTTSRDNSKNILYLQMNSLRGEDTAVYYCVKGLFDWFPLWGQGTMVTVSS
VL: DIVMTQSPATLSVSPGERAILSCRASQSVRSNLAWYQQKPGQAPRLLISGASTRATAIPARFSGSGSGTEFTLTITSLQSEDCAVYYCHQYNNWPQTFGQGTKVEIK
B2: COV2-2082 (antibody, V domains shown)
VH: EVQLVESGGGVVRPGGSLRLSCAASGFIFDDYDMTWVRQAPGKGLEWVSGISWNGGNTGYADSVKGRFTISRDNAKNSLYLQMNSLRAEDTALYHCAVIMSPIPRYSGYDWAGGAFDIWGQGTMVTVSS
VL: SSELTQDPAVSVALGQTVRITCQGDSLRSYYASWYQQKPGQVPILVIYDKNNRPSGIPDRFSGSSSGNTASLTITGAQAEDEADYYCNSRDSSGNAVVFGGGTKLTVL
B3: COV2-2113 (antibody, V domains shown)
VH: EVQLVESGGGLIQPGGSLRLSCAASEVTVSSNYMSWVRQAPGKGLEWVSLIYSGGTTYYADSVKGRFTISRDNSKNTLYLQMNSLRAEDTAVYYCARDFLRWHDLWGQGTLVTVSS
VL: DIQMTQSPSSLSASVGDRVTITCQASQDINNYLNWYQQKPGKAPKLLIYDASNLETGVPLRFSGSGSGTDFIFTISSLQPEDIATYYCQQYDNLPPVFGGGTKVEIK
B4: COV2-2132 (antibody, V domains shown)
VH: B3 VH
VL: B3 VL with I72T
B5: COV2-2050 (antibody, V domains shown)
VH: QVQLVQSGAEVKKPGASVKVSCKASGYTFTDYYMHWVRQAPGQGLEWMGWINPNSRGTNYAQKFQGRVTMTRDTSISTVYMELSRLTSDDTAVYYCARVVVLGYGRPNNYYDGRNVWDYWGQGTLVTVSS
VL: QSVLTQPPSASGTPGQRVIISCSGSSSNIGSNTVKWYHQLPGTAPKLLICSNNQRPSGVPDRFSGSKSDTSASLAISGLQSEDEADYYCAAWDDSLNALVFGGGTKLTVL
B6: COV2-2961 (antibody, V domains shown)
VH: EVQLVQSGPEVKKPGTSVKVSCKASGFTFMSSAVQWVRQARGQRLEWIGWIVIGSGNTNYAQKFQERVTITRDMSTSTAYMELSSLRSEDTAVYYCAAPYCSSISCNDGFDIWGQGTMVTVSS
VL: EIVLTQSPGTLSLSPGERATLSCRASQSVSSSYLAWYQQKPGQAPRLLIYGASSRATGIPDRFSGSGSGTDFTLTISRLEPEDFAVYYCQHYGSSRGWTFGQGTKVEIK
B7: COV2-2068 (antibody, V domains shown)
VH: EVQLVESGGGLVQPGGSLRLSCAASGFTVSSNYMSWVRQAPGKGLEWVSVIYPGGSAFYADSVKGRFTISRHNSNNTLCLQMNSLRTEDTAVYYCARSYDILTGYRDAFDIWGQGTMVTVSS
VL: QSVLTQPPSVSGAPGQRVTISCTGSSSNIGSGSDVHWYQQLPGTAPKLLIYGNTNRPSGVPDRFSGSKSGTSASLAITGLQAEDEADYYCQSYDSRLSGFVVFGGGTKLTVL
B8: COV2-2103 (antibody, V domains shown)
VH: EVQLVESGGGLVQPGGSLRLSCAASGFTFSRHWMTWVRQAPGKGLEWVANIKQDGSEKYYVDSVKGRLTISRDNAKNSLYLQMNSLRAEDTAVYYCARLGFYYGGADYWGQGTLVTVSS
VL: NFMLTQPHSVSESPGKTVTISCTGSSGSIASNYVQWYQQRPGSAPTTVISEDNQRPSGVPDRFSGSIDSSSNSASLTISGLKTEDEADYYCQSYDGINRAWVFGGGTKLTVL
B9: COV2-2046 (antibody, V domains shown)
VH: EVQLVESGGGLVQPGRSLRLSCAASGFTFDDYAMHWVRQAPGKGLEWVSGISWNSGSIAYTDSVKGRFTISRDNAKNSLYLQMNSLRAEDTALYYCAKAHSTGHQYYYGMDVWGQGTTVTVSS
VL: DIQMTQSPSSLSASVGDRVTITCRASQSISSFLNWYQQKPGKAPKLLIYAAFNLQSGVPSRFSGSGSGTDFTLTISSLQSEDFATYYCQQSYNTPYTFGQGTKLEIK

What follows are binders tested against T1, prefusion conformation-stabilized SARS-CoV-2 spike ectodomain (S2Pecto) protein (SARS-CoV-2, UniProt P0DTC2 14-1213; P10104 458-484) (assay: ELISA, purified IgG).
In the case of B1, the “OD 450 nm” value is reported as 4.3 OD 450 nm.
In the case of B2, the “OD 450 nm” value is reported as 4.3 OD 450 nm.
With B3 the “OD 450 nm” value was 4.4 OD 450 nm.
B4 was tested, and the “OD 450 nm” value was 4.4 OD 450 nm.
With B5 the “OD 450 nm” value was 4.3 OD 450 nm.
In the case of B6, the “OD 450 nm” value is reported as 3.6 OD 450 nm.
B7 was tested, and the “OD 450 nm” value was 4.3 OD 450 nm.
For B8, the “OD 450 nm” value was 4.3 OD 450 nm.
For B9, the “OD 450 nm” value was 4.3 OD 450 nm.

These binders were tested against T1, prefusion conformation-stabilized … (assay: ELISA on coated S2Pecto).
For B1, the EC50 was 0.0013 mg/L.
In the case of B2, the EC50 is reported as 0.0011 mg/L.
Binder B3 has an EC50 of 0.0018 mg/L.
With B5 the EC50 was 0.0017 mg/L.
Binder B7 has an EC50 of 0.0074 mg/L.
With B8 the EC50 was 0.0029 mg/L.

What follows are binders tested against T1, prefusion conformation-stabilized … (assay: competition ELISA on coated S2Pecto; hACE2-FLAG binding inhibited).
Binder B1 has an IC50 of 0.048 mg/L.
For B2, the IC50 was 0.043 mg/L.
With B3 the IC50 was 0.06 mg/L.
Work on B5 yielded an IC50 of 0.063 mg/L.
B7 gave an IC50 of 0.166 mg/L.
With B8 the IC50 was 0.079 mg/L.
